From the Immune Epitope Database (IEDB) come the findings set out here.

Usually Kd stands for the free concentration of one partner at which half of the binding sites on the other are occupied at equilibrium, for simple one-to-one binding.

What all share (experiment): IEDB peptide-MHC binding, purified MHC/competitive/radioactivity; filed as Kd, often an IC50 or EC50 that approximates it; ≥ and ≤ were set here for values at or beyond the usual limits of such assays
Experiment [1] has as its target HLA-A*31:01.
The target of experiment [2] is HLA-A*33:01.
Experiment [3] has as its target HLA-A*03:01.
Experiment [4] has as its target HLA-A*11:01.
Experiment [5] deals with HLA-A*68:01.
Where [6] appears, read: source organism: Dengue virus 4 Philippines/H241/1956.
The mark [7] stands for this setting: source organism: Vaccinia virus WR.
The mark [8] stands for this setting: source organism: Mammarenavirus brazilense.
The mark [9] stands for this setting: source organism: Lymphocytic choriomeningitis virus (strain Armstrong).
[10] abbreviates: source organism: Dengue virus 1 Brazil/97-11/1997.
[11] abbreviates: source organism: Mammarenavirus lassaense.
Where [12] appears, read: source organism: Dengue virus 3 Martinique/1243/1999.
Where [13] appears, read: source organism: Dengue virus 4 Dominica/814669/1981.
Where [14] appears, read: source organism: Dengue virus 2 Jamaica/1409/1983.
Setting [15] is: source organism: Dengue virus 2 Peru/IQT2913/1996.
The mark [16] stands for this setting: source organism: Dengue virus 3 Sri Lanka/1266/2000.
The mark [17] stands for this setting: source organism: SARS coronavirus Tor2.

Consider TMPLVMAWR, for which the Kd in experiment [1] (setting [6]) was 8.48 nM; in experiment [2] (setting [6]), 6.43 nM.

For the sequence NVFKAMETFK, the equilibrium dissociation constant (Kd) in experiment [3] (setting [7]) came out at 27.2 nM; in experiment [4] (setting [7]), 13.7 nM; in experiment [1] (setting [7]), 63 nM; in experiment [2] (setting [7]) it was 234 nM; in experiment [5] (setting [7]), 1.32 nM.

Take NTNLIKCSDH: the Kd in experiment [1] (setting [8]) was at least 37500 nM; in experiment [2] (setting [8]), at least 60300 nM.

On to GMDYEEYKSK, for which the Kd in experiment [3] (setting [7]) was 29.7 nM; in experiment [4] (setting [7]), 249 nM; in experiment [1] (setting [7]), 1690 nM; in experiment [2] (setting [7]) it was at least 36000 nM; in experiment [5] (setting [7]) it was at least 21100 nM.

On to NACSANNSHH, for which the Kd is at least 70000 nM in experiment [3] (setting [9]); at least 69700 nM in experiment [4] (setting [9]); at least 70000 nM in experiment [1] (setting [9]); at least 70000 nM in experiment [2] (setting [9]); 4710 nM in experiment [5] (setting [9]).

With ASTISWMMK, the Kd in experiment [3] (setting [7]) is 31.5 nM; in experiment [4] (setting [7]), 0.346 nM; in experiment [1] (setting [7]), 1820 nM; in experiment [2] (setting [7]), at least 38900 nM; in experiment [5] (setting [7]) it was 588 nM.

In the case of CTSQILLMR, the Kd in experiment [5] (setting [10]) came out at 16.7 nM.

On to VMNFIPIIY, for which the Kd in experiment [3] (setting [7]) is 58.7 nM; in experiment [4] (setting [7]), 60.5 nM; in experiment [1] (setting [7]), at least 20900 nM; in experiment [2] (setting [7]) it was at least 77700 nM; in experiment [5] (setting [7]), 8850 nM.

Take CSKHMDARY: the Kd was 19100 nM in experiment [3] (setting [7]); 10100 nM in experiment [4] (setting [7]); at least 45200 nM in experiment [1] (setting [7]); at least 77700 nM in experiment [2] (setting [7]); 18700 nM in experiment [5] (setting [7]).

Turning to SILSLETVK, the Kd in experiment [3] (setting [7]) was determined as 24.9 nM; in experiment [4] (setting [7]), 4.15 nM; in experiment [1] (setting [7]) it was 2610 nM; in experiment [2] (setting [7]), 18500 nM; in experiment [5] (setting [7]), 515 nM.

As for SFKLILAEY, the Kd is at least 76900 nM in experiment [3] (setting [7]); 13500 nM in experiment [4] (setting [7]); 681 nM in experiment [1] (setting [7]); 11700 nM in experiment [2] (setting [7]); at least 26000 nM in experiment [5] (setting [7]).

Consider TYLGPQFCK, for which the Kd in experiment [3] (setting [11]) stood at 156 nM; in experiment [4] (setting [11]), 13.3 nM; in experiment [1] (setting [11]), 5080 nM; in experiment [2] (setting [11]), 310 nM; in experiment [5] (setting [11]), 32.3 nM.

In the case of IMDKEQLLK, the Kd in experiment [3] (setting [7]) was determined as 10.2 nM; in experiment [4] (setting [7]), 22 nM; in experiment [1] (setting [7]) it was 1130 nM; in experiment [2] (setting [7]), 6380 nM; in experiment [5] (setting [7]), 1110 nM.

In the case of KKNGAIKVLR, the Kd in experiment [1] (setting [10]) is at least 70000 nM.

With GTVMDIISRK, the Kd in experiment [4] (setting [12]) was determined as 47.6 nM.

KIFSEVTPK: the Kd in experiment [3] (source organism: Homo sapiens) is 10 nM.

With EMGANFRADR, the Kd in experiment [1] (setting [10]) was at least 70000 nM.

As for RVYADPMALK, the Kd in experiment [3] (setting [6]) is 6.98 nM; in experiment [4] (setting [6]), 90.3 nM; in experiment [5] (setting [6]), 16.1 nM.

NKKPRLCTR: the Kd in experiment [2] (setting [12]) is 3910 nM.

Regarding MTLMKGASR, the Kd in experiment [1] (setting [13]) was determined as 30.5 nM; in experiment [2] (setting [13]), 11.6 nM; in experiment [5] (setting [13]) it was 52.3 nM.

In the case of AIKVLRGFKK, the Kd in experiment [4] (setting [10]) is 817 nM.

As for LTYQNKVVR, the results for the Kd in experiment [1] (setting [14]) and in experiment [5] (setting [14]) were 11.3 nM and 46.1 nM, respectively.

Consider DVISRRDQR, for which the results for the Kd in experiment [2] (setting [10]) and in experiment [5] (setting [10]) were 68.2 nM and 66.3 nM, respectively.

In the case of EATQLATLR, the Kd worked out at 94.7 nM in experiment [2] (setting [12]) and 15.9 nM in experiment [5] (setting [12]).

For the sequence RNKKPRLCTR, in experiment [1] (setting [12]), the Kd worked out at 92.6 nM.

For the sequence FTDPASIAAR, the Kd stood at 125 nM in experiment [2] (setting [14]) and 25.6 nM in experiment [5] (setting [14]).

In the case of MSTYGWNIVK, in experiment [5] (setting [12]), the Kd worked out at 6.17 nM.

As to TVMAFHLTTR, the Kd came out at 108 nM in experiment [4] (setting [15]), 1.57 nM in experiment [1] (setting [15]), 8.12 nM in experiment [2] (setting [15]) and 12.2 nM in experiment [5] (setting [15]).

Take YFWQKKKQR: the Kd worked out at 2220 nM in experiment [1] (setting [10]) and 98.2 nM in experiment [2] (setting [10]).

Regarding DSALTLHWFR, the equilibrium dissociation constant (Kd) in experiment [2] (setting [6]) came to 3.27 nM; in experiment [5] (setting [6]) it was 13.1 nM.

As for ILKRWGTIK, in experiment [3] (setting [14]), the Kd worked out at 14.2 nM.

With KNKAWMVHR, in experiment [1] (setting [12]), the equilibrium dissociation constant (Kd) came out at 1.18 nM.

On to VLAFITFLR, for which the Kd is 267 nM in experiment [3] (setting [6]), 4.41 nM in experiment [1] (setting [6]), 70.4 nM in experiment [2] (setting [6]) and 8.39 nM in experiment [5] (setting [6]).

HLKCRLRMDK: the Kd in experiment [3] (setting [14]) was determined as 119 nM.

On to QVYFESFVR, for which the Kd in experiment [4] (setting [9]) is 54.8 nM.

For the sequence EITAEWLWR, the figures for the Kd in experiment [2] (setting [16]) and in experiment [5] (setting [16]) were 11.4 nM and 114 nM, respectively.

For the sequence HYDQENPYR, the Kd in experiment [2] (setting [6]) turned out to be 7870 nM.

Regarding TIIGRRLQR, the Kd was determined as 416 nM in experiment [2] (setting [6]) and 617 nM in experiment [5] (setting [6]).

Regarding ATVVIGTSK, the Kd is 1320 nM in experiment [1] (setting [17]), at least 77700 nM in experiment [2] (setting [17]) and 101 nM in experiment [5] (setting [17]).

For GSLITCAKFK, the Kd in experiment [4] (source organism: Dengue virus 1 Nauru/West Pac/1974) was 244 nM.

As to QMWTLMYFHR, the Kd in experiment [1] (setting [14]) is 1.86 nM; in experiment [2] (setting [14]), 35.3 nM.

LTVCYVLTGR: the Kd in experiment [5] (setting [14]) turned out to be 6.43 nM.

Take FVCRRTFVDR: the Kd in experiment [1] (setting [10]) is at least 70000 nM; in experiment [2] (setting [10]), 65.2 nM.

Turning to ENKAWLVHR, the Kd in experiment [2] (source organism: Dengue virus 2 16681-PDK53) came to 7 nM.
